Patent US20240293460A1 (published 2024)
Each block holds one binder with its values, some of them ahead of it.

Target: soluble DKK1 peptide P20/HLA-A2 complex (human;, UniProt P61769 21-119; O94907 20-29)
Experiment: SPR

- Kd: 2780 nM
B1: DKK1-A2 mAb HMB7 (antibody, V domains shown)
VH: EVQLQQSGAELVKPGASVKLSCTASGFNIKDTYMHWVKQRPEQGLEWIGRIDPANGDTKYDPKFQGKATITADTSSNTAYLHLSSLTSEDTAVYYCARGRYYYGTSSFDYWGQGTTLTVSS
VL: DIVMTQSHKFMSTSVGDWVSITCKAWQDVDTAVAWYQQKPGQSPKLLIYWASTRHTGVPDRFTGSGSGTDFTLTISNVQSEDLADYFCQQYSSYPYTFGGGTKLEIK

- Kd: 17.6 nM
B2: DKK1-A2 mAb HMB1 (antibody, V domains shown)
VH: QVQLKESGPGLVAPSQSLSITCTVSGFSLTDFAVTWIRQPPGKGLEWLGVIWGGGSTYYNSALKSRLSISKDNSKSQVFLKMNSLQTDDTAMYYCAKTTPIYFDYDHALDYWGQGTSVTVSS
VL: DVVVTQTPLSLPVSFGDQVSISCRSSQSLTNSYGNTYLSWYLHKPGQSPQLLIYGISNRFSGVPDRFSGSGSGTDFTLKISTIKPEDLGMYYCLQGTHQPYTFGGGTKLEIK
